T1: 128AA-mFc (128-amino acid loop-3 fragment of FGFR2IIIc fused to mouse Fc) (human)
T1 chain: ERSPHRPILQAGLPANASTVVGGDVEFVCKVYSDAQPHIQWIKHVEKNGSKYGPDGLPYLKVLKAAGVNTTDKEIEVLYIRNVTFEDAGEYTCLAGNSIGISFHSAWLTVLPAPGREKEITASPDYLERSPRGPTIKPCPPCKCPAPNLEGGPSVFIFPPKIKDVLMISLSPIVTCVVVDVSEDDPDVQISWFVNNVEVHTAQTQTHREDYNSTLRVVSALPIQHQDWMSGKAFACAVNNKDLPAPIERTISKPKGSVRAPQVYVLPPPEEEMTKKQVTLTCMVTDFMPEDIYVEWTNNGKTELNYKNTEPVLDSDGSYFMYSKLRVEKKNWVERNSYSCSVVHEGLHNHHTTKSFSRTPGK

T2: FGF8b (UniProt P55075-3 23-215)
T2 construct: Coated on ELISA plates; also called ligand protein FGF8b
T2 sequence (looked up): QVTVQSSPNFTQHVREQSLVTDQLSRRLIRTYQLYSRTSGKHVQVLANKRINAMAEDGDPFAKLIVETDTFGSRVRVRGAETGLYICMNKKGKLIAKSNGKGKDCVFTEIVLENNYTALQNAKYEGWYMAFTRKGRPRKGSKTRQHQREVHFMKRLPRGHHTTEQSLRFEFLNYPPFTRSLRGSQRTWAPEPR

B1: human scFv clone 8, phage-displayed (scFv)
scFv: QSVLTQPPSVSAAPGQKVTISCSGSSSNIGNNYVSWYQQLPGTAPKLLIYDNNKRPSGIPDRFSGSKSGTSATLAISGLQSEDEADYYCAAWDDSLNGVVFGGGTKLTVLGSGGSTITSYNVYYTKLSSSGTQVQLVQSGAEVKKPGSSVKVSCKASGGTFSSYAISWVRQAPGQGLEWMGRIIPIFGTANYAQKFQGRVTITADESTSTAYMELNSLRSEDTAVYYCARDRWDWNDAFDIWGQGTMVTVSS
notes: also called scFv-8; Atto-HuMab-08
B2: FGFR2 IIIb-Fc (Fc fusion)
chain: TLEPEDAISSGDDEDDTDGAEDFVSENSNNKRAPYWTNTEKMEKRLHAVPAANTVKFRCPAGGNPMPTMRWLKNGKEFKQEHRIGGYKVRNQHWSLIMESVVPSDKGNYTCVVENEYGSINHTYHLDVVERSPHRPVLQAGLPANASTVVGGDVEFVCKVYSDAQPHIQWIKHVEKNGSKYGPDGLPYLKVLKHSGINSSNAEVLALFNVTEADAGEYICKVSNYIGQANQSAWLTVLPKQQAPGREKEITASPDYLEDKTHTCPPCPAPELLGGPSVFLFPPKPKDTLYITREPEVTCVVVDVSHEDPEVKFNWYVDGVEVHNAKTKPREEQYNSTYRVVSVLTVLHQDWLNGKEYKCKVSNKALPAPIEKTISKAKGQPREPQVYTLPPSREEMTKNQVSLTCLVKGFYPSDIAVEWESNGQPENNYKTTPPVLDSDGSFFLYSKLTVDKSRWQQGNVFSCSVMHEALKFHYTQKSLSLSPGK
notes: also called FGFR2IIIb beta-ECD; FGFR2IIIb-hFc
B3: Atto-HuMab-01 (full-length human IgG1) (antibody, V domains shown)
VH: QVQLVQSGAEVKKPGSSVKVSCKASGGTFSSYAISWVRQAPGQGLEWMGRIIPIFGTANYAQKFQGRVTITADESTSTAYMELNSLRSEDTAVYYCARDRWDWNDAFDIWGQGTMVTVSS
VL: not shown
notes: also called Atto-01
B4: Flag-FGFR2-IIIb expressed on CHO cells (receptor, human)
chain: RPSFSLVEDTTLEPEEPPTKYQISQPEVYVAAPGESLEVRCLLKDAAVISWTKDGVHLGPNNRTVLIGEYLQIKGATPRDSGLYACTASRTVDSETWYFMVNVTDAISSGDDEDDTDGAEDFVSENSNNKRAPYWTNTEKMEKRLHAVPAANTVKFRCPAGGNPMPTMRWLKNGKEFKQEHRIGGYKVRNQHWSLIMESVVPSDKGNYTCVVENEYGSINHTYHLDVVERSPHRPILQAGLPANASTVVGGDVEFVCKVYSDAQPHIQWIKHVEKNGSKYGPDGLPYLKVLKHSGINSSNAEVLALFNVTEADAGEYICKVSNYIGQANQSAWLTVLPKQQAPGREKEITASPDYLEIAIYCIGVFLIACMVVTVILCRMKNTTKKPDFSSQPAVHKLTKRIPLRRQVTVSAESSSSMNSNTPLVRITTRLSSTADTPMLAGVSEYELPEDPKWEFPRDKLTLGKPLGEGCFGQVVMAEAVGIDKDKPKEAVTVAVKMLKDDATEKDLSDLVSEMEMMKMIGKHKNIINLLGACTQDGPLYVIVEYASKGNLREYLRARRPPGMEYSYDINRVPEEQMTFKDLVSCTYQLARGMEYLASQKCIHRDLAARNVLVTENNVMKIADFGLARDINNIDYYKKTTNGRLPVKWMAPEALFDRVYTHQSDVWSFGVLMWEIFTLGGSPYPGIPVEELFKLLKEGHRMDKPANCTNELYMMMRDCWHAVPSQRPTFKQLVEDLDRILTLTTNEEYLDLSQPLEQYSPSYPDTRSSCSSGDDSVFSPDPMPYEPCLPQYPHINGSVKT
notes: whole, on cells; also called CHO-FGFR2-IIIb; FGFR2-IIIb-expressing CHO cells; not shown: Flag-tag at the N-terminus

Legend:
human ovalbumin (OA) = human ovalbumin (OA) (human); assay: phage ELISA on coated protein
human ferritin (Fer) [1] = target: T3, human ferritin (Fer) (human, UniProt P02794 2-183; P02792 2-175, Natural ferritin is a 24-subunit shell of H and L chains in a tissue-dependent ratio, with an iron core. The letters carry one copy of each subunit.); assay: phage ELISA on coated protein
T3 construct: also called Feritin

[2] = target: T1, 128AA-mFc (128-amino acid loop-3 …); assay: phage ELISA on coated protein
FGFR2 IIIb-Fc = target: B2; assay: phage ELISA, plate coated with FGFR2 IIIb Fc fusion (whole extracellular domain)
[3] = target: B4; assay: immunocytochemical staining of CHO cells transiently expressing FGFR2IIIb
human ferritin (Fer) [4] = target: T3, human ferritin (Fer); assay: phage ELISA on coated protein; remark: listed apart in the source
FGF8b = target: T2, FGF8b; assay: ligand binding ELISA (data not shown)
[5] = target: T4, FGFR2-IIIc (receptor protein of FIG. 52C) (UniProt P21802 152-377, limits assumed); assay: ELISA with biotinylated Atto-HuMab-01; the receptor concentration is varied (x axis: FGFR receptor concentration, nM)
[6] = target: B4; assay: immunocytochemistry on CHO cells
[7] = target: T5, Flag-FGFR2-IIIc expressed on CHO cells (human, UniProt P21802 22-821); assay: cell-based binding assay on stable CHO-FGFR2-IIIc cells, method of Beatty et al.
T5 construct: whole, on cells; also called CHO-FGFR2-IIIc; CHO-IIIc; not shown: Flag-tag at the N-terminus

[8] = target: T4, FGFR2-IIIc (receptor protein of FIG. …); assay: binding curves of biotinylated antibody on FGF receptors (FIG. 52C), format not told; biotinylated antibody, FIG. 52C receptor panel
[9] = target: T5, Flag-FGFR2-IIIc expressed on CHO cells; assay: cell-based binding assay (cell ELISA) on stable CHO-FGFR2-IIIc cells
[10] = target: T6, dcFv-01 (Fc-fusion of human scFv Clone 1) (human); assay: immunocytochemical staining of CHO cells transiently expressing FGFR2IIIb
T6 construct: scFv-1 fragment fused to the N-terminus of human IgG1 Fc; bivalent; also called dcFv-1; clone dcFv-1; not shown: human IgG1 Fc of vector pFUSE-hIgG1e2-Fc2(IL2ss) (Invivogen)

Binder: B1
- OD (450 nm) (human ovalbumin (OA)): 0.02
- OD (450 nm) (human ferritin (Fer) [1]): 0.011
- OD (450 nm) [2]: 0.215
- binding result (FGFR2 IIIb-Fc): no binding
- binding result [3]: no binding
- binding result (human ferritin (Fer) [4]): no binding

Binder: B2
- binding result (FGF8b): no binding

Binder: B3
- EC50 (read off the curve) [5]: ~0.2 nM
- binding result [6]: no binding (tested: 1ug/ml)
- Kd [7]: 0.7 nM
- Kd [8]: ~0.2 nM
- EC50 (read off the curve) [9]: ~0.4 nM

Binder: B4
- binding result [10]: no binding

From patent publication US20130142802A1 (published 2013)
